Experimental data from publication PMC5704914 (Biochemistry, 2017).

B1: fluorescein-labeled α11.2 IQ domain peptide AAs 1644-1668, I1654A (peptide)
peptide: not shown
modifications: fluorescein covalently linked to the N-terminal amino group
B2: fluorescein-labeled α11.2 IQ domain peptide AAs 1644-1668, Q1655A (peptide)
peptide: not shown
modifications: fluorescein covalently linked to the N-terminal amino group
B3: fluorescein-labeled α11.2 IQ domain peptide AAs 1644-1668, K1647A (peptide)
peptide: not shown
modifications: fluorescein covalently linked to the N-terminal amino group
B4: fluorescein-labeled α11.2 IQ domain peptide AAs 1644-1668, F1648A (peptide)
peptide: not shown
modifications: fluorescein covalently linked to the N-terminal amino group
B5: fluorescein-labeled α11.2 IQ domain peptide AAs 1644-1668, Y1649A (peptide)
peptide: not shown
modifications: fluorescein covalently linked to the N-terminal amino group

molecular target: apo-calmodulin (UniProt P0DP23 1-149); assay: fluorescence polarisation

Row | Kd [µM] | Binder
1 | 141 | B1
2 | 22.3 | B2
3 | 44.2 | B3
4 | 32.4 | B4
5 | 61.9 | B5
